# Measurements reported in the DeepSol protein solubility set.
# Assay: soluble on expression in E. coli; label from the status in PepcDB or PDB records
row,Sequence,soluble on expression in E. coli
1,GPLGSPEFPGAFRTQKPSLNTVNVVGSSMGSGGVFTIDGKIKCVTAAHVLTGNSARVSGVGFNQMLDFDVKGDFAIADCPNWQGVAPKAQFCEDGWTGRAYWLTSSGVEPGVIGNGFAFCFTACGDAGSPVITEAGELVGVHTGSNKQGGGIVTRPSGQFCNVKPIKLSELSEFFAGPKVPLGDVKIGSHIIKDTCEVPSDLCALLAAKPELE,soluble
2,SVISESMDILFRIRGGLDLAFQLATPNEIFLKKALKHVLSDLSTKLSSNALVFRICHSSVYIWPSSDINTIPGELTDASACKTILRFIQFEPEEDIKRKFMRKKDKKLSDMHQIVNIDLMLEMSTSLAAVTPIIERESGGHHYVNMTLPVDAVISVAPEETWGKVRKLLVDAIHNQLTDMEKCILKYMKGTSIVVPEPLHFLLPGKKNLVTISYPSGIPDGQLQAYRKELHDLFNLPHDRPYFKRSNAYHFPDEPYKDGYIRNPHTYLNPPNMETGMIYVVQGIYGYHHYMQDRIDDNGWGCAYRSLQTICSWFKHQGYTERSIPTHREIQQALVDAGDKPATFVGSRQWIGSIEVQLVLNQLIGITSKILFVSQGSEIASQGRELANHFQSEGTPVMIGGGVLAHTILGVAWNEITGQIKFLILDPHYTGAEDLQVILEKGWCGWKGPDFWNKDAYYNLCLPQRPNMI,not soluble
3,METKKTLREGYTTGSCATVATKAALTALITGQVQAEATIRLPIGRVVTFSLASCSFDGETATASVVKDGGDDPDATHGALIVSTVSWTSSPGVHIDGGEGVGRVTKPGLPVPVGEAAINPVPRQMIREAVNEVLAQYGLHRGVKVVISVPGGEEIAKKTLNPRLGIIGGISILGTRGIVVPFSTAAYRASIVQALQVAKANGCRHVVITTGGRSEKYAMQEYPHLPEEAFIEMGDFVGFTLKQCKRLGIKMVSMVGMMGKFSKVAQGVMMVHSKSAPVDFGFLAAIAEQAGACPELVAAVRGANTAAQVGDMMQEAGCTKFFELLCEACCQAALHEVGGGLTVATSIYTMNGQRLGKAVQTDGDDEVDRCRC,not soluble
4,MSSDKNGDILRPLSDSEVDELLDLYKVKFGIRNFHYLLLYNQRKWDRQLSEAQIPRNDLNHISLRKQFYTHRRGNFRTWGTYVSLHRDIVQSVSFFSWQPDGAAELWECLEQTQLIEWTQGALLTNVDLGFCNRVKELAVSRGVTAIQPRQCFGMVLSHEDAFCAKVPDLPSEFEIRRLRAEDAAMVHDSWPNKGEGSLTYLQALVRFNKSLGICRSDTGELIAWIFQNDFSGLGMLQVLPKAERRGLGGLLAAAMSREIARGEEITLTAWIVATNWRSEALLKRIGYQKDLVNEWIKLVPNSSLEHHHHHH,soluble
5,MLIHIGIDDTDSPNGMCTTYIGAILYREISKIAEPLDFPRLIRLNPNVPYKTRGNGAVAMSFKIDEEKIKEVKTLVIRYVRELADIDHENTNPGIVFLIGEVPKELEEFSLRALREHVTIEEAEHVARKVNAEVYKFKLGRGIIGGLAAIGYPLEKFTYELLAYRKREYWGTPRRVIKESVFYADKWSYPFTYDNVDPYKRTVLITPHGKDPVLVGIRGIDVGKILQVFEMIKIEEPIEFFQVYKTNQNTDDHLVVKKIKDVKPYDNVVIRGKVAGKYWEKGRHVFFELEDETGKIRVAAFEPTKKFRNYVRKLLPGDEVIIAGGVKEFEGVLTVNLEKFYPVNLVPKVEYEKPRCPKCGGTMKSKGDYLKCKKCGYKMEKILTPVKRPRDLKKKIYEVPPDARKHISRPLVLPGGEDKILEALLEHHHHHH,soluble
6,MADAAEGEQPKLSKKELNKLARKAKKDEKAGEKGGNQQQAAAMDQEDASKDFYGSYGLVNSKEKKVLNFLKVKEINVSNATKDVWVRGRIHTTRSKGKNCFLVLRQGVYTVQVAMFMNEKISKQMLKFVSSISKESIVDVYATINKVDNPIESCTQKDVELLAQQVFVVSTSAPKLPLQIEDASRRAPTDEEKASEQENQLAVVNLDTRLDNRVIDLRTPTSHAIFRIQAGICNQFRNILDVRGFVEIMAPKIISAPSEGGANVFEVSYFKGSAYLAQSPQLYKQMAIAGDFEKVYTIGPVFRAEDSNTHRHMTEFVGLDLEMAFNFHYHEVMETIAEVLTQMFKGLQQNYQDEIAAVGNQYPAEPFQFCEPPLILKYPDAITLLRENGIEIGDEDDLSTPVEKFLGKLVKEKYSTDFYVLDKFPLSVRPFYTMPDAHDERYSNSYDMFMRGEEILSGAQRIHDADMLVERAKHHQVDLAKIQSYIDSFKYGCPPHAGGGIGLERVTMLFLGLHNIRLASLFPRDPKRLTP,not soluble
